Results reported in US20130177572A1 (X BODY, published 2013).
Where a chain is given by its changes, count along the chain named.

Tests used:
human PDGFRβ [1] = molecular target: T1, human PDGFRβ (human, UniProt P09619 33-530, limits assumed); experiment: solution equilibrium binding: 35S-Met labelled in vitro translated protein, human PDGFRβ titrated, capture on protein A beads, scintillation counts
T1 construct: also called hPDGFRβ; recombinant human PDGFRβ
Description: The affinity of several scFvs was determined by solution based equilibrium binding assay. Specifically, 120 pmol of scFv RNA was translated into free protein with ³⁵S Met incorporated. The translated reaction mixture was 3-fold diluted in binding buffer containing 1×PBS with 0.025% triton, 1 mg/mL BSA and 0.1 mg/mL sssDNA. Human PDGFRβ was diluted in the same binding buffer to final concentrations from 100 nM to 0 nM. The diluted scFv mixture was incubated with hPDGFRβ in final volume of 100 ul on Kingfisher plates (Thermofisher Scientific, 97002084). Following incubation, 25 ul of protein A magnetic beads (Invitrogen) were used to capture the PDGFRβ from solution. The captured PDGFRβ was washed and eluted in kingfisher Reader (Thermofisher Scientific). The amount of scFv (labeled with ³⁵S Met) bound to the magnetic bead-immobilized hPDGFRβ was counted using a scintillation counter and the Kd was calculated with Graph Pad Prism 5.

human PDGFRβ [2] = molecular target: T1, human PDGFRβ; experiment: ELISA: plate coated with 2 ug/mL human PDGFRβ or human Fc, in vitro translated crude lysate diluted 1:3, anti-flag-HRP, OD450
Description: (§1) A PDGFRβ binding ELISA assay was performed to assess the binding of the scFv to immobilized PDGFRβ and to determine the EC50. Specifically, 2 ug/mL of human PDGFRβ and human Fc or IgG in PBS was immobilized on Maxisorp plates at 4° C. overnight. The plate was then washed and blocked with superblock. In vitro translated crude scFv lysate was diluted 1:3 in 1×PBST. 100 ul of the diluted scFv lysate was loaded into each well of Maxisorp plates and incubated for 1 hour at room temperature. scFv that bound to immobilized PDGFRβ was detected by anti-flag antibody-HRP at 1:5000 dilution and a TMB substrate. The plate was read on a Molecular Device plate reader with end point assay at OD 450 nm.

human PDGFRβ [3] = molecular target: T1, human PDGFRβ; experiment: ELISA: plate coated with 2 ug/mL human PDGFRβ or human IgG, in vitro translated crude scFv lysate diluted 1:3, anti-flag-HRP, OD450
Description: as §1

human PDGFRβ [4] = molecular target: T1, human PDGFRβ; experiment: ELISA of unpaired VL domains: plate coated with human PDGFRβ or human Fc, OD 450 nm
Description: as §1, with “In vitro translated crude scFv lysate was diluted 1:3 in 1×PBST.” left out

T1 sequence (P09619 33-530 limits assumed): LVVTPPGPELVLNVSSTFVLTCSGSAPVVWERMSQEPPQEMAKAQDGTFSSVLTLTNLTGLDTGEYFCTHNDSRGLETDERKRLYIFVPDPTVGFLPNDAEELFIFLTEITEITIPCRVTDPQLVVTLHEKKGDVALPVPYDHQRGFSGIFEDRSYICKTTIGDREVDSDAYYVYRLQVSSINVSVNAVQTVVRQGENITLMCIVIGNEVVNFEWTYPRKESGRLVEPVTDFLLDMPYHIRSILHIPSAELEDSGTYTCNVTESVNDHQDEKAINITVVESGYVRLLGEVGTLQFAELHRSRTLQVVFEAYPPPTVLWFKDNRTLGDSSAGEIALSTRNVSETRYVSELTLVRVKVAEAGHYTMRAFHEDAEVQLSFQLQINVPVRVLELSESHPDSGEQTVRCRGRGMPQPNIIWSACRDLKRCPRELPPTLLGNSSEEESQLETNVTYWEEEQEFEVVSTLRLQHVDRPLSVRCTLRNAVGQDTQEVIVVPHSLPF

B1: H8 scFv (scFv, V domains shown)
VH: QVQLVQSGAEVKKPGSSVKVSCKASGGTFSSYAISWVRQAPGQGLEWMGGIIPIFGTANYAQKFQGRVTITADESTSTAYMELSSLRSEDTAVYYCAIHGGDRSYWGQGTLVTVSS
VL: QSVLTQSPGTLSLSPGERATLSCRASQSVSSNYLAWYLQKPGQAPRLLISGASSRATGIPDRFSGSGSGTDFTLTISRLEPEDFAVYYCQQYAGSPFTFGPGTKLTVL
notes: VL of the second round pool paired with XB1511 VH
Kd (human PDGFRβ [1]): 24.4 nM

B2: B11 scFv (scFv, V domains shown)
VH: B1 VH
VL: B1 VL with L38Q, S50Y, T57S, D61V, F63V, A93G, G94S, F97W, P101Q
notes: VL of the second round pool paired with XB1511 VH; also called XB1511/B11 scFv
binding result (human PDGFRβ [2]): binds

B3: H10 scFv (scFv, V domains shown)
VH: B1 VH
VL: QSVLTQSPDFQSVSPKDKVTITCRASQSIGSSLHWYQQKPGQSPKLLIKYSSQSFSGVPSRFSGSASGTEFTLTITGLEAEDAATYYCHQSSSLPHTFGQGTKVTVL
notes: as for B1
Kd (human PDGFRβ [1]): 23.2 nM

B4: H11 scFv (scFv, V domains shown)
VH: B1 VH
VL: QSVLTQSPDFQSVTPKEKVTITCRASQSIGSSLHWYQQKPDQSPKLLITFASQSFSGVPSRFSGSGSGTDFTLTINSLEAEDAATYYCHQSRNLPFTFGPGTKLTVL
notes: as for B1
Kd (human PDGFRβ [1]): 12.9 nM

B5: G8 scFv (scFv, V domains shown)
VH: B1 VH
VL: QSVLTQSPGTLSLSPGDRATLSCRASQSLSGTYLAWYQQKPGQAPRLLIYDASNRAAGIPKRFSGSGSRTDFTLTISRVDPADSAVYYCQQYGSALLTFGGGTKVTVL
notes: as for B1
binding result (human PDGFRβ [2]): binds

B6: A8 scFv (scFv, V domains shown)
VH: B1 VH
VL: QAGLTQSPDFQSVTPKERVTITCRASRYIGSNLHWYQQKPDQPPKLLIKLASQSFSGVPPRFSGGGSGTDFTLTINGLEAEDAATYYCHQTGSFPYTFGQGTKLTVL
notes: as for B1
binding result (human PDGFRβ [2]): binds

B7: C7 scFv (scFv, V domains shown)
VH: B1 VH
VL: DIVMTQTPLSLSVTPGQPASISCKSSQSLLHSDGKTHLFWYLQRPGQSPQLLIYEVSGRFSGVSERFSGSGSGTDFTLKISRVEAEDVGVYYCMQGLHIPHTFGQGTKVEIK
notes: as for B1
binding result (human PDGFRβ [2]): binds

B8: B6 (scFv, V domains shown)
VH: QVQLVQSGAEVKKPGSSVRVSCKASGGTFSRHAISWVRQAPGQGLEWIGGILPILKTPNYAQRFQGRVTINADESTSTVYMEMSSLRSEDTAVYYCATHGGDRSYWGQGTLVTVSS
VL: EIVLTQSPGTLSLSPGERATLSCRASQSFGSNYLAWYQHKPGQAPRLLIFAASNRATGIPDRFTGSASGTDFTLTINRVEPEDLAVYYCQQYGSFPYSFGQGTKLEIK
notes: also called XB2202/B6 scFv
binding result (human PDGFRβ [3]): binds

B9: D1 (scFv, V domains shown)
VH: B8 VH
VL: DIVMTQTPLSLSVTPGQPAAISCKSSQSLVHRDGKTYLYWYLQKPGHSPQLLVYEASSRFSGVPDRISGSASGTQFTLNISRVEAEDVGLYYCMQSRNLPKTFGQGTKVEIK
notes: also called XB2202/D1 scFv
binding result (human PDGFRβ [3]): binds

B10: F3 (scFv, V domains shown)
VH: B8 VH
VL: QSVLTQPPSVSVAPGKTARITCGGNNIGSKSVHWYQQKPGQAPVLVIYYDSDRPSGIPERFSGSNSGNTATLTISRVEAGDEADYYCQVWDSSSDHWVFGGGTKLTVL
notes: also called XB2202/F3 scFv
binding result (human PDGFRβ [3]): binds

B11: G5 (scFv, V domains shown)
VH: B8 VH
VL: DIQMTQSPSSLSASVGDRVTITCRASQDISSSLAWYQQKPGKAPKPLIYDASTLQTGVPSRFSGRASGTDFTLTIDSLQPEDFATYCCQQFNSYPLSFGGGTKVELKR
notes: also called XB2202/G5 scFv
binding result (human PDGFRβ [3]): binds

B12: H5 (scFv, V domains shown)
VH: B8 VH
VL: SYELTQPPSVSMAPGKTARITCGGNNLGSKIVHWYQQKPGQAPVVVIYSDRDRPSGVPERFSGSNSGNSATLTISGVEAGDEADYYCQVWDSATDHVVFGGGTKLTVL
notes: also called XB2202/H5 scFv
binding result (human PDGFRβ [3]): binds

B13: H10 VL (other)
VL domain: B3 VL
notes: unpaired VL domain; also called unpaired H10 VL domain
binding result (human PDGFRβ [4]): no binding (tested: no concentration on the sheet)

B14: B11 VL (other)
VL domain: B1 VL with L38Q, S50Y, T57S, D61V, F63V, A93G, G94S, F97W, P101Q
notes: unpaired VL domain; also called unpaired B11 VL domain
binding result (human PDGFRβ [4]): no binding (tested: no concentration on the sheet)

B15: H8 VL (other)
VL domain: B1 VL
notes: unpaired VL domain; also called unpaired H8 VL domain
binding result (human PDGFRβ [4]): no binding (tested: no concentration on the sheet)

B16: G8 VL (other)
VL domain: B5 VL
notes: unpaired VL domain; also called unpaired G8 VL domain
binding result (human PDGFRβ [4]): no binding (tested: no concentration on the sheet)

B17: H11 VL (other)
VL domain: B4 VL
notes: unpaired VL domain; also called unpaired H11 VL domain
binding result (human PDGFRβ [4]): no binding (tested: no concentration on the sheet)

B18: A8 VL (other)
VL domain: B6 VL
notes: unpaired VL domain; also called unpaired A8 VL domain
binding result (human PDGFRβ [4]): no binding (tested: no concentration on the sheet)

B19: C7 VL (other)
VL domain: B7 VL
notes: unpaired VL domain; also called unpaired C7 VL domain
binding result (human PDGFRβ [4]): no binding (tested: no concentration on the sheet)

B20: G11 VL (other)
VL domain: EIVLTQSPGTLSLSPGEGATLSCRASQSVSSRNLAWYQQKPGQAPRLLIYGGSIRASGTSTRFSGSGSGTDFTLTINRLEPEDFAVYYCQQYGDSVFTFGPGTKVDIK
notes: unpaired VL domain; also called unpaired G11 VL domain
binding result (human PDGFRβ [4]): no binding (tested: no concentration on the sheet)
